Assay results: the PETadex activity labels (doi:10.1007/s00253-011-3781-6)

Columns and labels:
Conditions in all cases: pH 6; 37 °C
[1] = substrate: p-NP-C2
[2] = substrate: p-NP-C4
[3] = substrate: p-NP-C6
[4] = substrate: p-NP-C8

B1: unnamed (protein)
chain: MSVTTPRRETSLLSRALRATAAAATAVVATVALAAPAQAANPYERGPNPTESMLEARSGPFSVSEERASRFGADGFGGGTIYYPRENNTYGAIAISPGYTGTQSSIAWLGERIASHGFVVIAIDTNTTLDQPDSRARQLNAALDYMLTDASSAVRNRIDASRLAVMGHSMGGGGTLRLASQRPDLKAAIPLTPWHLNKSWRDITVPTLIIGAEYDTIASVTLHSKPFYNSIPSPTDKAYLELDGASHFAPNITNKTIGMYSVAWLKRFVDEDTRYTQFLCPGPRTGLLSDVEEYRSTCPF
With B1 the Km [1] was 3220 µM, the kcat [1] was 2.06 s⁻¹ and the kcat/Km [1] was 640 M⁻¹ s⁻¹. The Km [2] was 3410 µM, the kcat [2] was 4.48 s⁻¹ and the kcat/Km [2] was 1310 M⁻¹ s⁻¹. It also gave a Km [3] of 2370 µM, a kcat [3] of 3.28 s⁻¹ and a kcat/Km [3] of 1380 M⁻¹ s⁻¹. For the same protein, the Km [4] was 1870 µM, the kcat [4] was 2.45 s⁻¹ and the kcat/Km [4] was 1310 M⁻¹ s⁻¹.
